# Assay: soluble on expression in E. coli; label from the status in PepcDB or PDB records
row,Sequence,soluble on expression in E. coli
1,MGSDKIHHHHHHMKFLNVIFKGHSISELIQEVIYVFIGYFFLMISYCTPRNKKKWVFGNKKIFKDNTKYLFIYMQEQHPEIQTIWITSSRRLVKRLRALSYSAYYKYSLKGLYHSLTAGVYVSTVNSNHINFFTSGRVFNVNLWHGISLKAMVDNKAVPADRSFLSRVCMPYVYEQYGLFFSTTPTIDDQYLRFFRFDPQVLYHGMSPRCSFMMMDHERLLRYIEEKEDPLMLDIIHTSRKYNKVFVYMPTWRINYGTHFMDYAFPDLYALNKAFSKINAILLLKLHPSMTYDAFKYKDLKHIYYIDANIDLYPILPFTDIMISDYSSIWYDYLLLPNKGVIHYDFDVDSYAKNEFGFFRDYKTFTPGVHASDFKQLLATIESSSSLQISEERRTWILDEMWGKGRSTNNEDLIKEICKRVEQVL,not soluble
2,MSLGGSAMYHAQLGREYHEKALKYRSLAMRSLAHSGTSHSLDLHGATVREAKTIVRERVAAWWAKEADTSPNSIRPFVIVTGRGNHSIGLEARLLPAIVRLLQQDHWRFDAEHGQITVYGINRHSKEGHHHHHH,soluble
3,SSENQKEVSPPQAISVKSEASSSIFSKPISTSSPAGLAAAQRVTPGKLSTLLLEMGPLAIRHITQTLCLDIPCFKDLSSSKQRRLIMSAMESGDKEKSVVFEKIGWGQWSAKRVDPANFDKELEATNFANAKVKDLISQESQRRKSNNSNSNSGGKVEMPMKVEHNITNIDGATTPPTAVASTTIPVNIKRSKSPLAAANVVYIDENALASEDEDEEFDEDDHHLHYQNKSRNSSNNFGKSSNGDPYSFGRRRSQVVFADSTPENIEHEIIAQKIRPLLRNRRRSSIKPHTPFISKLNTHQDSSYLSPNTTSTTTPSNNNSNSNQAKIDLEKLTATSEPTSRRASRLSVSKESSIRSTLFPNKNYLIVTTNPNSKATSVSTSPKLEEQMNVSSNPIVLSDKEKHRVASQHLNGESSPQLVPHSHHQPHSDTDEEDWESIGAASLRNNSLAPNIDSVASSTNGVVSPKPTNPSFTNSQNGDIEPPLQHDQQKHEQQPRNGEDNSAAFLLMSLKS,soluble
4,MGSDKIHHHHHHMPLYRHLDLQSRYVTSRPVDVWLPAATGDQPLPVIYMHDGQNLFDPTLRADGEVWAVDQAIERLCATYNWPGAIVVGVWCTDQRWREYAPQKPFAALRQTRGWESIVERMGGEPVSDAYLSFLVEEVRPFVDRHYPTLPDASNTFLMGSSMGGLISLYGVCQYPDLFAGAGCLSTHWPAGGNLLVDELAALLPPAGRHRFYFDYGTVGLDAEYEPFQQRMDRLLEQAGYRHGHDWLTRKFPGAAHNEAAWRARVADVIAFLVLGRVAGE,not soluble
5,MIGYQIYVRSFRDGNLDGVGDFRGLKNAVSYLKELGIDFVWLMPVFSSISFHGYDVVDFYSFKAEYGSEREFKEMIEAFHDSGIKVVLDLPIHHTGFLHTWFQKALKGDPHYRDYYVWANKETDLDERREWDGEKIWHPLEDGRFYRGLFGPFSPDLNYDNPQVFDEMKRLVLHLLDMGVDGFRFDAAKHMRDTIEQNVRFWKYFLSDLKGIFLAEIWAEARMVDEHGRIFGYMLNFDTSHCIKEAVWKENTRVLIESIERAVIAKDYLPVNFTSNHDMSRLASFEGGFSKEKIKLSISILFTLPGVPLVFYGDELGMKGVYQKPNTEVVLDPFPWNESMCVEGQTFWKWPAYNGPFSGISVEYQKRDPDSILSHTLGWTRFRKENQWIDRAKLEFLCKEDKFLVYRLYDDQHSLKVFHNLSGEEVVFEGVKMKPYKTEVV,soluble
6,ASDRQLGPPRMCEPSPREQLMESIRKGKELKQITPPEA,soluble
7,MIEIATSPATTTLVIAGDLDLAERDQFPEIAARVVGLRRQLLVIDMCRVTFMDSTGAAFLISLADSGRKRGGATVLRGCDDRDLFVLEVCGALELFRIDPDHACAPKTPATGVPAVEERPGRTR,not soluble
8,MSLKQKSVPMRHGTIYLYGLHSVHAALKNPKRVFEHLYITPNALKRLNIPESDLPCPITLCLPKQLDSFVGNDAVHQGIVLETEPLKPCQLSELTNTDLVIVMDQITDPHNVGAIMRSAVAFKAEALITTYRHSPQESGVLAKAASGALEMIHYITVQNLAETLQELHKAGFISFGLDSEGNHPLETTLTGEKIALVLGAEGKGLRKKTRENVCALTRLDMPGNIKSLNVSNAATIALYAAHKYLRGEGHHHHHH,soluble
9,EPPADGGQIKGVGSGRCLDVPDASTSDGTQLQLWDCHSGTNQQWAATDAGELRVYGDKCLDAAGTSNGSKVQIYSCWGGDNQKWRLNSDGSVVGVQSGLCLDAVGNGTANGTLIQLYTCSNGSNQRWTRT,soluble
10,MIKEQVKSLWKLCFDDSEAFIELYFRLRYNNEVNLAIQSGEEVIAALQMLPYPMTFCNKIVPTSYISGACTHPDYRAKGVMRELLSQSFARMLRNGVLFSTLIPAEPWLFGYYAKTGYTPAFRISHKVFSLSELTIGPEPDTMIEETTEYQEDYYQYLTGKLSERACCLQHTPTDFKVVLADLALTQNTVLIARKDNRVTGIAVVYKHDDSSYINELFADNEAVRAQLLYRAGLRNGTERIILQLPPVESLPSVPLGMARIIDARAVLQLYAAGCPEVEMNIELTDEQLSVNNGYYYLCKGKCMTSEVRLPGVHTRMTIAELSEKILGEMQPYMSLMMN,not soluble
11,MSGARLHTLLPELTTRQPVMVVGAAVIDVIADAYALPWRGCDIELKQQSVNVGGCALNIAVALKRLGIEAGNALPLGQGVWAEIIRNRMAKEGLISLIDNAESDNGWCLALVEPDGERTFMSFSGVENQWNRQWLARLTVAPGNLLYFSGYQLASPCGELLVEWLEKLQDVTPFIDFCPRIGDIPDALLARIMACRPLVSLNRQEAEIAAERFALSAEITTLGKQWQEKFAAPLIVRLDKEGAWYFSNDASGCIPAFPTQVVDTIGAGDSHAGGVLAGLASGLPLADAVLLGNAVASWVVGHRGGDCAPTREELLLAHKNV,not soluble
12,MVEPQHNVMQMGGDFANNPNAQQFIDKMVNKHGFDRQQLQEILSQAKRLDSVLRLMDNQAPTTSVKPPSGPNGAWLRYRKKFITPDNVQNGVVFWNQYEDALNRAWQVYGVPPEIIVGIIGVETRWGRVMGKTRILDALATLSFNYPRRAEYFSGELETFLLMARDEQDDPLNLKGSFAGAMGYGQFMPSSYKQYAVDFSGDGHINLWDPVDAIGSVANYFKAHGWVKGDQVAVMANGQAPGLPNGFKTKYSISQLAAAGLTPQQPLGNHQQASLLRLDVGTGYQYWYGLPNFYTITRYNHSTHYAMAVWQLGQAVALARVQ,soluble
13,WLEPYMTSVASVKDLSKINLVEALNARLGWPLNQHLDEWLPEHYQLPTGTKKRIRYQHGHEPVLSVRMQEVFGESTSPTVALGRKRLVLELLSPAQRPLQVTSDLAAFWNGSYKDVQKEMKGRYPKHVWPDDPANHVATTKTKRQLNND,not soluble
14,MYTDSNNRNFDEVNHQHQQEQDFNGQSKYDYPQFNRPMGLRWRDDQRMMEYFMSNGPVETVPVMPILTEHPPASPFGRGPSTERPTTSSRYEYSSPSLEDIDLIDVLWRSDIAGEKGTRQVAPADQYECDLQTLTEKSTVAPLTAEENARYEDLSKGFYNGFFESFNNNQYQQKHQQQQREQIKTPTLEHPTQKAELEDDLFDEDLAQLFEDVSREEGQLNQLFDNKQQHPVINNVSLSEGIVYNQANLTEMQEMRDSCNQVSISTIPTTSTAQPETLFNVTDSQTVEQWLPTEVVPNDVFPTSNYAYIGMQNDSLQAVVSNGQIDYDHSYQSTGQTPLSPLIIGSSGRQQQTQTSPGSVTVTATATQSLFDPYHSQRHSFSDCTTDSSSTCSRLSSESPRYTSESSTGTHESRFYGKLAPSSGSRYQRSSSPRSSQSSIKIARVVPLASGQRKRGRQSKDEQLASDNELPVSAFQISEMSLSELQQVLKNESLSEYQRQLIRKIRRRGKNKVAARTCRQRRTDRHDKMSHYI,not soluble
15,MFHLSSLICCGCKPNFLGFERHHPFYDNDKKRICSSECGHSLCKKCFETYKNCPICAKPLVRIDNFMAREIYAFLKKTPMIVFDMWWNRSQNPSSTGRCSTCHKYDRILRWCITCEKDLKNSEAEWRRPKIEPNTDLQKELIKVSKERFRFGILANRVICSDCFLEHHAGHRVIFLDEMISALTEYSISDSATHLVQRFLWREIEERRGKCLLRTMRMKRAFLKLFYLACDSDLTDDYNDLPKFFERLDDWKVPDGYMEKVRKNLEHQFASANVPWKDCECRYAMRIMNDMFSFKNQIEKLFVSIVNDLDLHEITECPFKNSQITDMLQKTKKMVDIQLYKLYTLFCWNNYKDGVFELFNNSNRLPTKCCLCKMSTCAECWDEEPHKCGICDDATTSSRTDPDIVVLELVKHYKENCISLLEAWWECDAAQLGFCLNCASYTEDLEICVYCELDVERSALKTEVETSAEFTKDMQLRFTYKGLSGFPMRWQCSDCTTRHRKPTADVWNKGCNHFRYRSMYASVSSECFAHNHKSPCLRLKEIKNYDLAMKAATFGLVFKIIKEGIKEHVGSEHARKEILET,not soluble
16,MSLGDEGWQTVIGLEIHAQIKTGKKLFSKASTSYGHVPNTNVDVHDAAFPGTLPVLDINAIRLSIMTALALNCQINPRSTFDRKHYFYHDIPASYQITQHYNPLAWNGHLEIREGDNGSKRTFNIGIKQLQVEQDTAKSQTVGDAVLVDLNRAGTGLMEIVTDPDMRSPEEAGAFVKKLQGLLRRVGSADGDMEKGNLRVDVNVSVHRPGMPFGTRCEIKNINSVRFLQAAIESERQRHIAHYCTSPLEPLAQETRGFNELTLQTYSLRSKEEATDYRYMPDHNLPAIIIDDGYLDSLWKNLPEMPWQSVERLVKTYGVTKRDAETLLGLDEYSAQGIAYFEEVVEQDKKIAKKATNWIAHELLGQLGKAIRPWTPTIVPAPLMHELVTAVESREITGTTGKAIVKHFVSLPESASLPPSFAELLAELGLTPSAASVEDLTETCKKAMNNQPKAVADFKKGNEKVVMRLVGEVMKLSGGKADAMKAKDILLDLLKDEGHHHHHH,not soluble
17,MKLALTLEADSVNVQALNMGRIVVDVDGVNLSELINKVSENGYSLRVVDKSDQHATSTPPPLTTLTCIRCSTAHITETDNAWLYSLSHQTNDDGETEWIHFTGSGYLLRTDAWSYPVLRLKRLGLSRTFRRLVVTLTRRYGVSLIHLDAGAECLPGFPTFDW,not soluble
18,MGSDKIHHHHHHMWYMRWEGVSDGLKVTAGSVIQRDDLVQYTTTDDATSSGGVLRVPIACSSAGAVGNADDGTALILVTPVNGLPSSGVADTLTGGFDTEELETWRARVIERYYWTPQGGADGDYVVWAKEVPGITRAWTYRHLMGTGTVGVMIASSDLINPIPEESTETAARQHIGPLAPVAGSDLYVFRPVAHTVDFHIRVTPDTPEIRAAITAELRSFLLRDGYPQGELKVSRISEAISGANGEYSHQLLAPVDNISIAKNELAVLGTISWT,not soluble
19,MRPNYTVSSSGTNKGSVLAVCNTTYYKSNKLISKNEITLYKGFRSLSTNHKIETIVHEFGHGFGLGHVKTKNAIMLDKGFINKTKPQTDDFNGIKALYKLEHHHHHH,not soluble
20,MRAELNQGLIDFLKASPTPFHATASLARRLEAAGYRRLDERDAWHTETGGRYYVTRNDSSLIAIRLGRRSPLESGFRLVGAHTDSPCLRVKPNPEIARNGFLQLGVEVYGGALFAPWFDRDLSLAGRVTFRANGKLESRLVDFRKAIAVIPNLAIHLNRAANEGWPINAQNELPPIIAQLAPGEAADFRLLLDEQLLREHGITADVVLDYELSFYDTQSAAVVGLNDEFIAGARLDNLLSCHAGLEALLNAEGDENCILVCTDHEEVGSCSHCGADGPFLEQVLRRLLPEGDAFSRAIQRSLLVSADNAHGVHPNYADRHDANHGPALNGGPVIKINSNQRYATNSETAGFFRHLCQDSEVPVQSFVTRSDMGCGSTIGPITASQVGVRTVDIGLPTFAMHSIRELAGSHDLAHLVKVLGAFYASSELP,not soluble
